# Data published in article PMC7308506 (2020).
# T1: activated factor XII
# T1 chain 1: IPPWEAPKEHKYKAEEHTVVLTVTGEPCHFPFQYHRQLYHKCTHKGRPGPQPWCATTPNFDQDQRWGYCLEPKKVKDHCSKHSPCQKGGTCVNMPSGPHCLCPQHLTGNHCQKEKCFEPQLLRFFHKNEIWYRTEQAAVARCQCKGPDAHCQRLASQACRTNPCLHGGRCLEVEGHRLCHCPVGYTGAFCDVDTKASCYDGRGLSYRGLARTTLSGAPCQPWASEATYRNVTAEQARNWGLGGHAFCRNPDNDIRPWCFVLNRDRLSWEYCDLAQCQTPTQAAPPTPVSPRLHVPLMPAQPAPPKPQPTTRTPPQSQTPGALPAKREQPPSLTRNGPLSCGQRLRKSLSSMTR
# T1 chain 2: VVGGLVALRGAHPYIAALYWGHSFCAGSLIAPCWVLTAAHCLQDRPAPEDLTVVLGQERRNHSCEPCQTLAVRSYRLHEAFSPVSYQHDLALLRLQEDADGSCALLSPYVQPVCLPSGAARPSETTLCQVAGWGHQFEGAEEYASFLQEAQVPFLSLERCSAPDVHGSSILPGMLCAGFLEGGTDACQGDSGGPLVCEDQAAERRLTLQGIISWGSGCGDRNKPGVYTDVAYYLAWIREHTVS
# Tests used:
# activated factor XII = target: T1, activated factor XII; assay: SPR
# kallikrein = assay: SPR
binder,measurement,setting,value
LCTX-F2 (peptide) GAKACTPRLHDCSHDRHSCCRGELFKDVCYCFYPEGEDKTEVCSCQQPKSHKYIEKVVDKTKTLVG,Kd,activated factor XII,7.2 nM
same,Kd,kallikrein,4.6 nM
